Sequences and labels used below:
B1: TOA-1 variant VH human v1.1 / VL human v1.0 (antibody, V domains shown)
VH: EVQLVESGGGLVQPGGSLRLSCATSGYSFTAYFMNWVRQAPGKGLEWVARINPNNGDTFYTQKFKGRFTISVDNAKNSAYLQMNSLRAEDTAVYYCARRDYFGAMDYWGQGTLVTVSS
VL: DIQMTQSPSSLSASVGDRVTITCRASQTISNNLHWYQQKPGKAPKLLIYSASLAISGVPSRFSGSGSGTDFTLTISSLQPEDFATYYCQQSNSWPNTFGGGTKVEIK
notes: Human IgG; constant regions not restated; also called hu v1.1 / hu v1.0
B2: TOA-1 variant VH human v2.0 / VL human v1.0 (antibody, V domains shown)
VH: EVQLVQSGAEVKKPGATVKISCKVSGYSFTAYFMNWVQQAPGKGLEWMGRINPNNGDTFYTQKFKGRVTITADTSTDTAYMELSSLRSEDTAVYYCATRDYFGAMDYWGQGTLVTVSS
VL: DIQMTQSPSSLSASVGDRVTITCRASQTISNNLHWYQQKPGKAPKLLIYSASLAISGVPSRFSGSGSGTDFTLTISSLQPEDFATYYCQQSNSWPNTFGGGTKVEIK
notes: Human IgG; constant regions not restated; also called hu v2.0 / hu v1.0
B3: TOA-1 variant VH mouse / VL human v1.0 (antibody, V domains shown)
VH: EVQLQQSGPELVKPGASMKISCKTSGYSFTAYFMNWVKQSHGKSLEWIGRINPNNGDTFYTQKFKGKATLTVDKSSNTAHMELLSLTSEDSAIYYCGRRDYFGAMDYWGQGTSVTVSS
VL: DIQMTQSPSSLSASVGDRVTITCRASQTISNNLHWYQQKPGKAPKLLIYSASLAISGVPSRFSGSGSGTDFTLTISSLQPEDFATYYCQQSNSWPNTFGGGTKVEIK
notes: Human IgG from COS-1 conditioned medium; constant regions not restated; also called mu / hu v1.0
B4: TOA-1 variant VH mouse / VL human v1.1 (antibody, V domains shown)
VH: EVQLQQSGPELVKPGASMKISCKTSGYSFTAYFMNWVKQSHGKSLEWIGRINPNNGDTFYTQKFKGKATLTVDKSSNTAHMELLSLTSEDSAIYYCGRRDYFGAMDYWGQGTSVTVSS
VL: DIQMTQSPSSLSASVGDRVTITCRASQTISNNLHWYQQKPGESPKLLIKSASLAISGVPSRFSGSGSGTDFTLTISSLQPEDFATYYCQQSNSWPNTFGGGTKVEIK
notes: Human IgG from COS-1 conditioned medium; constant regions not restated; also called mu / hu v1.1
B5: TOA-1 variant VH human v1.1 / VL human v2.0 (antibody, V domains shown)
VH: EVQLVESGGGLVQPGGSLRLSCATSGYSFTAYFMNWVRQAPGKGLEWVARINPNNGDTFYTQKFKGRFTISVDNAKNSAYLQMNSLRAEDTAVYYCARRDYFGAMDYWGQGTLVTVSS
VL: EIVMTQSPATLSVSPGERATLSCRASQTISNNLHWYQQKPGQAPRLLIYSASLAISGIPARFSGSGSGTEFTLTISSLQSEDFAVYYCQQSNSWPNTFGGGTKVEIK
notes: Human IgG; constant regions not restated; also called hu v1.1 / hu v2.0
B6: TOA-1 variant VH human v1.1 / VL human v1.1 (antibody, V domains shown)
VH: EVQLVESGGGLVQPGGSLRLSCATSGYSFTAYFMNWVRQAPGKGLEWVARINPNNGDTFYTQKFKGRFTISVDNAKNSAYLQMNSLRAEDTAVYYCARRDYFGAMDYWGQGTLVTVSS
VL: DIQMTQSPSSLSASVGDRVTITCRASQTISNNLHWYQQKPGESPKLLIKSASLAISGVPSRFSGSGSGTDFTLTISSLQPEDFATYYCQQSNSWPNTFGGGTKVEIK
notes: Human IgG; constant regions not restated; also called hu v1.1 / hu v1.1
B7: TOA-1 variant VH human v2.0 / VL human v1.1 (antibody, V domains shown)
VH: EVQLVQSGAEVKKPGATVKISCKVSGYSFTAYFMNWVQQAPGKGLEWMGRINPNNGDTFYTQKFKGRVTITADTSTDTAYMELSSLRSEDTAVYYCATRDYFGAMDYWGQGTLVTVSS
VL: DIQMTQSPSSLSASVGDRVTITCRASQTISNNLHWYQQKPGESPKLLIKSASLAISGVPSRFSGSGSGTDFTLTISSLQPEDFATYYCQQSNSWPNTFGGGTKVEIK
notes: Human IgG; constant regions not restated; also called hu v2.0 / hu v1.1
B8: TOA-1 variant VH human v2.0 / VL human v2.0 (antibody, V domains shown)
VH: EVQLVQSGAEVKKPGATVKISCKVSGYSFTAYFMNWVQQAPGKGLEWMGRINPNNGDTFYTQKFKGRVTITADTSTDTAYMELSSLRSEDTAVYYCATRDYFGAMDYWGQGTLVTVSS
VL: EIVMTQSPATLSVSPGERATLSCRASQTISNNLHWYQQKPGQAPRLLIYSASLAISGIPARFSGSGSGTEFTLTISSLQSEDFAVYYCQQSNSWPNTFGGGTKVEIK
notes: Human IgG; constant regions not restated; also called hu v2.0 / hu v2.0

Drawing on US20200123260A1 (Pfizer, published 2020), this text covers IC50 for eight molecules.

T1 sequence (Q16620 32-430): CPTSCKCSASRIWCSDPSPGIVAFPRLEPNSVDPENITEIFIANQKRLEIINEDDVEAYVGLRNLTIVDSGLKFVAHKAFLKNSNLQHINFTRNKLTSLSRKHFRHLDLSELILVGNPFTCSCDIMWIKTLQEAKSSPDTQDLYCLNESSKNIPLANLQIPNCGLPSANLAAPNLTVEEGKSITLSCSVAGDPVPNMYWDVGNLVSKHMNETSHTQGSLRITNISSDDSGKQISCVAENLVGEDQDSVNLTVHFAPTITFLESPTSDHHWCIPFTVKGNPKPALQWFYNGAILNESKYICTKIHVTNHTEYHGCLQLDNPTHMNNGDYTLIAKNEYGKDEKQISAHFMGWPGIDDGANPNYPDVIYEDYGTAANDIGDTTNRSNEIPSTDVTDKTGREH

This assay concerns the target T1, rhTrkB-ECD (R&D #397-TR/CF) (human, UniProt Q16620 32-430).
T1 construct: extracellular domain; Bought protein; also called human TrkB-extracellular domain protein; human TrkB ectodomain protein
Nature of the assay: competition ELISA on coated rhTrkB-ECD; competitor biotinylated chimeric TOA-1 at 25 ng/ml.
Protocol: The wells were washed four times with PBS+0.03% tween-20 Streptavidin-HRP (Southern Biotech catalog #7100-05) diluted 1:10,000 was added and incubated for 30 minutes at room temperature. The wells were washed four times with PBS+0.03% tween-20 and TMB (BioFx) was added. The reaction developed for 5-10 minutes and was then quenched with 0.18 N H₂SO₄. The absorbance at 450 nm was determined.
Usually IC50 stands for the concentration that gives 50% inhibition. The low end stands for higher potency, the high end for lower potency. In the case of B1, the IC50 was 13.6 nM. This counts as double-digit nanomolar.

B2 registered an IC50 of roughly 126 nM. The value for B3 was 16.3 nM; that for B4 was 13.6 nM; that for B5 was 10.7 nM.

The molecule B6 registered an IC50 of 10.1 nM.

Turning to B7, the IC50 was roughly 87.6 nM. For B8 the value was roughly 37.8 nM.
